Biological target: LRH-1 ligand binding domain (LBD), residues 299-541, His tag cleaved (human, UniProt O00482 299-541)
Assay: crystal structure

Chain of LRH-1 ligand binding domain (LBD), residues 299-541, His tag cleaved (O00482 299-541): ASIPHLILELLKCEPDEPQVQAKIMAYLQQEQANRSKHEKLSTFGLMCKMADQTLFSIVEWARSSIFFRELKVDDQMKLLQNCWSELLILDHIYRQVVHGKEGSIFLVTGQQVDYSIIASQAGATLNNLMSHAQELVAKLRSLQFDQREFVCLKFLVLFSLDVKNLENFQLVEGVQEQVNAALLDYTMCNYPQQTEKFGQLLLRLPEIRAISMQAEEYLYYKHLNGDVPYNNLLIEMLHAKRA

Binder: KENALLRYLLDK [Tif2 peptide (transcriptional intermediary factor 2 coregulator peptide)]
- binding result: binds

— publication doi:10.1101/2020.09.01.278291 (bioRxiv, 2020)
